One test has as its target T1, Seb1-CID(1-152) (S. pombe, UniProt Q9UTE3 1-152).
T1 construct: The full-length parent construct in pET41a(+) has a C-terminal His8 tag; also called CID WT; source: E. coli Rosetta, purified (Ni-NTA, size-exclusion chromatography)
T1 sequence (looked up): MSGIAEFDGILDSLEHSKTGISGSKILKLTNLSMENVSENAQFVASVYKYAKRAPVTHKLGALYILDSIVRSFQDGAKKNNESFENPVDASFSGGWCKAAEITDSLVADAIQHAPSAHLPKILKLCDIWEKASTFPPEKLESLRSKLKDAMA
In words: fluorescence polarisation; fluorescence anisotropy; Seb1-CID(1-152) titrated against 75 nM N-terminally FAM-tagged two-repeat CTD peptide; 25 mM HEPES pH 7.3, 200 mM NaCl, 1 mM EDTA; 25 °C. To be noted: both partners purified.

In test [1] the target is T2, FAM-tagged two-repeat S5-phosphorylated CTD peptide.
T2 chain: YSPTSPSYSPTSPS
In words: fluorescence anisotropy (FA). To be noted: chain shown with the change; read at the highest titration point, Seb1-CID 500 µM; parent: est. 77; read off a plot.

Test [2] deals with T3, FAM-tagged two-repeat S2-phosphorylated CTD peptide.
T3 chain: YSPTSPSYSPTSPS
In words: fluorescence anisotropy (FA). The note with it: chain shown with the change; read at the highest titration point, Seb1-CID 500 µM; parent: est. 110; read off a plot. For orientation: Polarisation of emitted light reports the rotation of a fluorescent probe.

For test [3], the target named is T4, FAM-tagged two-repeat non-phosphorylated CTD peptide.
T4 chain: YSPTSPSYSPTSPS
Put plainly: fluorescence anisotropy (FA). To be noted: chain shown with the change; read at the highest titration point, Seb1-CID 500 µM; parent: est. 44; read off a plot.

For test [4], the target named is FAM-tagged two-repeat S2-phosphorylated CTD peptide. In words: fluorescence polarisation; fluorescence anisotropy; Seb1-CID(1-152) titrated against 75 nM N-terminally FAM-tagged two-repeat CTD peptide; 25 mM HEPES pH 7.3, 200 mM NaCl, 1 mM EDTA; 25 °C.
The target of test [5] is FAM-tagged two-repeat S5-phosphorylated CTD peptide. The test is described as above.
Test [6] addresses FAM-tagged two-repeat S7-phosphorylated CTD peptide. The test is described as above.

Residue numbers refer to the chain shown, from its start. Numbers in names are those of the source. Where no end group is shown, it is not given here. FAM = 5'-fluorescein amidite

Turning to {FAM}-YSPTSPSYSPTSPS [FAM-tagged two-repeat non-phosphorylated CTD peptide], the Kd (in general, the concentration at which binding is half-saturated) in the test with Seb1-CID(1-152) is over 1000 µM.

B1: Seb1-CID(1-152), Q9UTE3 K121E (protein)
chain: T1 sequence (looked up) with K121E
For B1, the response in test [1] is 47; in test [2], 47; in test [3], 34.

B2: Seb1-CID(1-152), Q9UTE3 S22D; K25E; K124E (protein)
chain: T1 sequence (looked up) with S22D, K25E, K124E
On to B2, for which the response in test [1] was 27; in test [2], 22; in test [3] it was 33.

B3: Seb1-CID(1-152), Q9UTE3 K124E (protein)
chain: T1 sequence (looked up) with K124E
Regarding B3, the response in test [1] was 58; in test [2], 59; in test [3] it was 56.

B4: Seb1-CID(1-152), Q9UTE3 S22D; K25E (protein)
chain: T1 sequence (looked up) with S22D, K25E
As to B4, the response in test [1] was 46; in test [2], 72; in test [3], 28.

B5: Seb1-CID(1-152), Q9UTE3 Y64K (protein)
chain: T1 sequence (looked up) with Y64K
B5: the response in test [1] stood at 40; in test [2] it was 65; in test [3] it was 20.

B6: Seb1-CID(1-152) (domain or fragment)
chain: T1 sequence (looked up)
As for B6, the Kd in test [4] was 23.4 µM; in test [5], 83.7 µM; in test [6], 242 µM.

The values are drawn from PMC5382271, “The conserved protein Seb1 drives transcription termination by binding RNA polymerase II and nascent RNA” (Nature Communications, 2017).
